Measured values as given in paper PMC9482650, “Quantitative fragmentomics allow affinity mapping of interactomes” (Nature Communications, 2022).

T1: PCLO, Q9Y6V0
T1 sequence (Q9Y6V0 4491-4600, limits assumed, looked up): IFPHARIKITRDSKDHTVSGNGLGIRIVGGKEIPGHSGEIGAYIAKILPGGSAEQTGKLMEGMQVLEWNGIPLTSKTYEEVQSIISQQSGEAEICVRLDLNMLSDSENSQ

T2: PTPN13_1, Q12923
T2 sequence (Q12923 1088-1188, limits assumed, looked up): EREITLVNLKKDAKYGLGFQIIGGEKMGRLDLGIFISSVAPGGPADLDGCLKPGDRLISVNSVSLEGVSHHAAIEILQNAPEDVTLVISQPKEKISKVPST

T3: FRMPD1, Q5SYB0
T3 sequence (Q5SYB0 52-145, limits assumed, looked up): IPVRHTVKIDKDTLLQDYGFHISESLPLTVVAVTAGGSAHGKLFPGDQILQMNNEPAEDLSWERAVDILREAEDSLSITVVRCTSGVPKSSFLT

T4: DLG3_2, Q92796
T4 sequence (Q92796 221-321, limits assumed, looked up): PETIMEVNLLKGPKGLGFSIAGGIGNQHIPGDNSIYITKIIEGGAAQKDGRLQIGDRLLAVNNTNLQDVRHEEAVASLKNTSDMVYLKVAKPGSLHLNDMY

T5: LIN7A, O14910
T5 sequence (O14910 103-200, limits assumed, looked up): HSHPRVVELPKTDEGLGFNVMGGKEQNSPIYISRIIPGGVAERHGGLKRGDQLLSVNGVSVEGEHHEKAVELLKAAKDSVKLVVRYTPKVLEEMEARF

T6: MPDZ_12, O75970
T6 sequence (O75970 1857-1958, limits assumed, looked up): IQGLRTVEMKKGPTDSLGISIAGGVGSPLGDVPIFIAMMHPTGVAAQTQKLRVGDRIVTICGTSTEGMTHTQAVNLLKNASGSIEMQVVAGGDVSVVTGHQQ

T7: SHANK1, Q9Y566
T7 sequence (Q9Y566 658-767, limits assumed, looked up): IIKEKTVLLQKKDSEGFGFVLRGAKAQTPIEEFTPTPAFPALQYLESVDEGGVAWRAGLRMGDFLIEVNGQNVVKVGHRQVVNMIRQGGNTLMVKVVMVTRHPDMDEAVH

T8: ARHGEF11, O15085
T8 sequence (O15085 42-136, limits assumed, looked up): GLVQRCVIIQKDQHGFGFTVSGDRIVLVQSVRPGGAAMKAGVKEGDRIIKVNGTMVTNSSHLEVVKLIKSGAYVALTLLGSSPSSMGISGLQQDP

T9: TX1BP3, O14907
T9 sequence (O14907 10-122, limits assumed, looked up): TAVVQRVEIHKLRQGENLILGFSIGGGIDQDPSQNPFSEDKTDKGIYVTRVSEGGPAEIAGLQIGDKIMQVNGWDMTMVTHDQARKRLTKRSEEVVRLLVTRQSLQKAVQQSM


What was measured:
Assay in all cases: holdup assay
Set-up in all cases: key: below the threshold = too weak to quantify, mostly under pKd 3.1 to 4
Conditions in all cases: plain residues with an end cap or a label only (N-terminal biotin on a linker: ado-ado)
[1] = target: GRASP, Q7Z6J2
[2] = target: Inadl_5, Q8NI35
[3] = target: GRID2IP_1, A4D2P6
[4] = target: T1, PCLO, Q9Y6V0
[5] = target: GORASP2, Q9H8Y8
[6] = target: NHERF2_2, Q15599
[7] = target: T2, PTPN13_1, Q12923
[8] = target: T3, FRMPD1, Q5SYB0
[9] = target: DLG1_1, Q12959
[10] = target: Inadl_1, Q8NI35
[11] = target: DLG5_1, Q8TDM6
[12] = target: T4, DLG3_2, Q92796
[13] = target: Inadl_10, Q8NI35
[14] = target: DLG2_3, Q15700
[15] = target: GIPC2, Q8TF65
[16] = target: MAGI2_3, Q86UL8
[17] = target: MAGI2_6, Q86UL8
[18] = target: LNX1_1, Q8TBB1
[19] = target: T5, LIN7A, O14910
[20] = target: T6, MPDZ_12, O75970
[21] = target: T7, SHANK1, Q9Y566
[22] = target: MAST2, Q6P0Q8
[23] = target: Inadl_9, Q8NI35
[24] = target: T8, ARHGEF11, O15085
[25] = target: NHERF4_4, Q86UT5
[26] = target: T9, TX1BP3, O14907
[27] = target: PTPN3, P26045
[28] = target: PDZRN4_1, Q6ZMN7
[29] = target: MAGI2_2, Q86UL8
MAGI2_2, Q86UL8, sequence (Q86UL8 410-522): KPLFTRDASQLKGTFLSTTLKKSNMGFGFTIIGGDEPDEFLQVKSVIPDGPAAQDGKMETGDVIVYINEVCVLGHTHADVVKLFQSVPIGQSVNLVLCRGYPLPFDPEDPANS

GRID2IP_1, A4D2P6, sequence (A4D2P6 1-87): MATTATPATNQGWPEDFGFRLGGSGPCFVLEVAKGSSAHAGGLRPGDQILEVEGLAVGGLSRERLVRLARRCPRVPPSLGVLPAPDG
NHERF4_4, Q86UT5, sequence (Q86UT5 464-550): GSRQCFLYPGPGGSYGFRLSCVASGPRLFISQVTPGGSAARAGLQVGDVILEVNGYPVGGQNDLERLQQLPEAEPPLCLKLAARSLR
MAST2, Q6P0Q8, sequence (Q6P0Q8 1099-1202): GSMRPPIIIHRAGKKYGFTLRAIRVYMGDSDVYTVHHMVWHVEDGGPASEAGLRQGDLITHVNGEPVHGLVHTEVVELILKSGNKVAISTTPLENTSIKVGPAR
Inadl_5, Q8NI35, sequence (Q8NI35 673-780): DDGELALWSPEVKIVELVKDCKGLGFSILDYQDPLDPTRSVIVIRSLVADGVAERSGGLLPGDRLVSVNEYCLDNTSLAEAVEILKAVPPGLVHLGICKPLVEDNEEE
GIPC2, Q8TF65, sequence (Q8TF65 112-203): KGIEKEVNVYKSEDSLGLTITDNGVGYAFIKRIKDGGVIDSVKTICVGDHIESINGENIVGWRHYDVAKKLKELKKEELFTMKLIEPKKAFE
PDZRN4_1, Q6ZMN7, sequence (Q6ZMN7 213-318): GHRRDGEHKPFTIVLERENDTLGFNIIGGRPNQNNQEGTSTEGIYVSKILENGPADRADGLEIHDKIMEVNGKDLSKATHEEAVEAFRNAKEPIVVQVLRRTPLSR
LNX1_1, Q8TBB1, sequence (Q8TBB1 261-371): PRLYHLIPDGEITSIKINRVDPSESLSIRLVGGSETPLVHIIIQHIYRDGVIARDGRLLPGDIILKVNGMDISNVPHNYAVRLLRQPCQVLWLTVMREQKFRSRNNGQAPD
MAGI2_6, Q86UL8, sequence (Q86UL8 1141-1229): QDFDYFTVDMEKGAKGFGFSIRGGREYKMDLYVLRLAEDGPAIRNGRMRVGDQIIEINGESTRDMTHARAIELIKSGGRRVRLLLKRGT
GRASP, Q7Z6J2, sequence (Q7Z6J2 96-193): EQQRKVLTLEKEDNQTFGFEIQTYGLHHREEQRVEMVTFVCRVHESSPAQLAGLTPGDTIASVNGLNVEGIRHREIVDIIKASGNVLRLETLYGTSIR
DLG5_1, Q8TDM6, sequence (Q8TDM6 617-713): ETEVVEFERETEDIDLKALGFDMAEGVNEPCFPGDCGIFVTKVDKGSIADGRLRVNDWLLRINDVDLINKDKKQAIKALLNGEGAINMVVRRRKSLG
Inadl_10, Q8NI35, sequence (Q8NI35 1673-1763): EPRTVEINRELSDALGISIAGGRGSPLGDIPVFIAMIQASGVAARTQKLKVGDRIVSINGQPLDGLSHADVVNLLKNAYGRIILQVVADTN
Inadl_1, Q8NI35, sequence (Q8NI35 113-229): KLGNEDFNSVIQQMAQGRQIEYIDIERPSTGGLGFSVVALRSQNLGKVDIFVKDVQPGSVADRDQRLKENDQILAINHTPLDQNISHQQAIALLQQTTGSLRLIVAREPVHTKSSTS
MAGI2_3, Q86UL8, sequence (Q86UL8 600-682): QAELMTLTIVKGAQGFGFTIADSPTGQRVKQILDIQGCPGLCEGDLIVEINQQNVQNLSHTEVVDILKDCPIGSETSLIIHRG
NHERF2_2, Q15599, sequence (Q15599 142-238): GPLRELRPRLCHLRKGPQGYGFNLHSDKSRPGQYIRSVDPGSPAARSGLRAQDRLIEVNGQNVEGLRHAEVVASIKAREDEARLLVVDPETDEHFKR
Inadl_9, Q8NI35, sequence (Q8NI35 1530-1615): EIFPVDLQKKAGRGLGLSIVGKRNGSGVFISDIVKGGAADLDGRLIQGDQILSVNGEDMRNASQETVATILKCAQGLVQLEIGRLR
PTPN3, P26045, sequence (P26045 505-587): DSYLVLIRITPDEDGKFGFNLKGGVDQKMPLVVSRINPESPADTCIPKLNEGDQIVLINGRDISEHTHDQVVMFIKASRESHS

| pKd [1] | pKd [2] | pKd [3] | pKd [4] | pKd [5] | pKd [6] | pKd [7] | pKd [8] | pKd [9] | pKd [10] | pKd [11] | pKd [12] | pKd [13] | pKd [14] | pKd [15] | pKd [16] | pKd [17] | pKd [18] | pKd [19] | pKd [20] | Binder | also measured |
| --- | --- | --- | --- | --- | --- | --- | --- | --- | --- | --- | --- | --- | --- | --- | --- | --- | --- | --- | --- | --- | --- |
| below the threshold | below the threshold | below the threshold | below the threshold | 4.6 | below the threshold | below the threshold | below the threshold | below the threshold | below the threshold | 3.93 | below the threshold | below the threshold | below the threshold | below the threshold | below the threshold | below the threshold | below the threshold | below the threshold | below the threshold | KSGKQTMLVV [TRIM29, Q14134;Q14134-2] |  |
| 4.26 | below the threshold | below the threshold | below the threshold | below the threshold | 4.83 | below the threshold | below the threshold | below the threshold | below the threshold | below the threshold | below the threshold | below the threshold | below the threshold | below the threshold | below the threshold | below the threshold |  | below the threshold | below the threshold | LPAHHNATRL [SLC34A1, Q06495;Q06495-1] | pKd [21]: 5.39; pKd [22]: 5.47; pKd [23]: below the threshold; pKd [24]: 4.11; pKd [25]: below the threshold; pKd [26]: below the threshold; pKd [27]: 4; pKd [28]: 4.2 |

The remaining lines, values behind:

| Binder | pKd [1] | pKd [2] | pKd [3] | pKd [4] | pKd [5] | pKd [6] | pKd [7] | pKd [8] | pKd [9] | pKd [10] | pKd [11] | pKd [12] | pKd [13] | pKd [14] | pKd [15] | pKd [16] | pKd [17] | pKd [18] | pKd [19] | pKd [20] | also measured |
| --- | --- | --- | --- | --- | --- | --- | --- | --- | --- | --- | --- | --- | --- | --- | --- | --- | --- | --- | --- | --- | --- |
| VYPNAKVELV [PDLIM4_iso2, P50479;P50479-1] | below the threshold | below the threshold | below the threshold | below the threshold | 4.87 | below the threshold | below the threshold | below the threshold | below the threshold | below the threshold | below the threshold | below the threshold | below the threshold | below the threshold | below the threshold | below the threshold | below the threshold | below the threshold | below the threshold | below the threshold | pKd [21]: below the threshold; pKd [22]: below the threshold; pKd [24]: below the threshold; pKd [25]: below the threshold; pKd [26]: below the threshold; pKd [29]: below the threshold; pKd [28]: below the threshold |
| YLEPVLSSEL [ATP2A2, P16615;P16615-3] | 4.82 | below the threshold | below the threshold | below the threshold | below the threshold | 4.46 | below the threshold | below the threshold | below the threshold | below the threshold | below the threshold | 4.18 | below the threshold |  | below the threshold | below the threshold | 3.91 | 4.24 | below the threshold |  | pKd [21]: 4.67; pKd [22]: 5.81; pKd [23]: below the threshold; pKd [24]: 4.55; pKd [25]: below the threshold; pKd [26]: 3.94; pKd [27]: 4.93; pKd [29]: below the threshold; pKd [28]: below the threshold |
